According to the nanobody polyreactivity screen of Harvey et al. (2022):

Test: yeast display, Sf9 membrane polyspecificity reagent, FACS + sequencing; frameworks hold sequencing errors
Outline: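 Polyreactivity labels are assigned by the sorting gate from which each nanobody was recovered. The gates were low and high (top ~1%), set on anti-HA fluorescence for expression and streptavidin fluorescence for reagent binding. Before sorting, galactose-induced (36–48 hours) yeast display cells were stained for 1 hour at 4 °C with 10% biotinylated, detergent-solubilized Sf9 membrane reagent.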

Sequence | polyreactivity (PSR sort gate)
QVQLVESGGGLVQAGGSLRLSCAASGSTFIQNAMGWYTQAPGKERELVAAITSGGGTNYADSVKGRFTISRDNAKNTVYLQMNSLKPEDTAVYYCAAEPFNYVEFWFGWEYQYDYWGQGTQVTVSS | low polyreactivity
QVQLVESGGGLVQAGVSLRLSCAASGFIFYWYVMGWYRHAPGKERELVAGISKNGTNTYYADSVKGRFTISRDNAKNTVYLQMNSLKPEDTAVYYCAAAKCRTKYDYWGQGTQVTVSS | high polyreactivity
QVQLVESGGGLVQAGGSLRLSCAASGSSFSRYDMGWYRQAPGKERELVATITRPGRTYYADSVKGRFTISRDNATKTVYLQMNSLKPEDTAVYYCAKDAGKTYYVDGSLEYDSWGQGTQVTVSS | low polyreactivity
QVQLVESGGGLVQAGGSLRLSCAASGRTFQYYAMGWYRQAPGKERELVAAISSGGSTYYADSVKGRFTISRDNAKNTVYLQMNSLKPEDTAVYYCTARWGYRRGYWGQGTQVTVSS | high polyreactivity
QDQLVESGGGLVQAGGSLRLSCAASGFIYFQYAMGWYRQAPGKERELVAAISGSGVTTYYADSVKGRFTISRDNAKYTVYLQMNSLKPEDTAVYYCNAALRWKYDWGQGTQVTVSS | low polyreactivity
QVQLVESGGGLVQAGGSLRLSCAASGRTLGYKAMVWYRQAPGKERELVAAISWSGGATYYADSVKGRFTISRDNAKNTVYLQMNSLKPEDTAVYYCAALNNRYPLYNYWGQGTQVTVSS | low polyreactivity
QVQLVESGGGLVQAGGSLGISCAACGSIFSVNAMGWFRQAPGKERELVAGITISGGRTYYADSVKGRFTISRDNAKNTVYLQKNSLKPEDTAVYYCAAYVDPAYYYWGPGTQVTVSS | low polyreactivity
QVQLVESGGGLVQAGGSLRLSCAASGRIFDRYDMGWYRQAPGKERELVAGITASGGSTYYADSVKGRFTISRDNAKNTVYLQMTSLKPEDTAVYYCAVVYGYRYYYWGQGTQVTVSS | high polyreactivity
QDQLVESGGGLVQAGGSLRLSCAASGRIFKYKAMGRYRQAPGKERELVAAIRRSGGSTYYADSVKGRFTISRDYAKNTVYLQMNSLKPEDTAVYFCNRLYGPGFKSVYGYDYWGQGTQVTVSS | high polyreactivity
QVQLVESGGGFVQAGGSRRLSCAASGRIFDDNAMGGYRPAPGKERELVAAISSGDYTKYADSVKGRFTISRDNSKNSVYLQMNSLKPEDTAVYYCAADIVSDSFYQPEYDYWGQGTQVTVSS | low polyreactivity
QVQLVESGGGLVQAGGSLRLSCAASGRTFYRYTMGWYRQAPGTERELVAAISWSGGSTYYADSVKGRFTSSRDNAKNTVYLQMNSLKPEDTAVYYCAKATYWLYVQWYTYGYWGQGTQVTVSS | high polyreactivity
QVQLVESGGGLVQAGGSLRLSCAASGRTYTFYARGWYRQAPGKERELVAAITWGGGSTYYADSVKGRFTISRDNAKNTVYLQMNSLKPEDTAVYYCAAEWYEPVGSRWYSPYYYWGQGTQVTVSS | high polyreactivity
QVQLVESGGGLVQAGGSLRLSCAASGSIFNYYAMGWYRQAPGKERELVAAISWNGGRTYYADSVKGRFTISRDNAKNTVYLQMNSLKPEDTAVYYCNAYPAGYVAHTYDYWGQGTQVTVSS | high polyreactivity
QVQLVESGGGLVQAGGSLRLSCAASGSIYTPNVMGWYRQAPGKERELVAAISQSGGSTFYADSVKGRFTISRDNAKNTVYLQMNSLKPEDTAVYYCATEYYGPVYDLDYDYWGQGTQVTVSS | low polyreactivity
QVQLVESGGGLVQAGGSLRLSCAASGRIFLGYTMGWYRQAPGKERELVAAISKSGDSTYYADSVKGRFTISRDNAKNTVYLQMNSLKPEDTAVYYCAKDYGGRLYYYWGQGTQVTVSS | high polyreactivity
QVQLVESGGGLVQAGGSLRLSCAASGRIFYYNTMGWYRQAPGKERELVARITYSGGRTYYADSVKGRFTISRDNAKNTVYLQMNSLKPEDTAVYYCNTAYRYFERQMYYWGQGTQVTVSS | high polyreactivity
QVQLQESVVGLVQAGGSLRLSCAASGNIIPTDRMGWYRQAPGKELEFVATISHGGSTNYADSVKGRFTISRDNAKNTVYLQMNSLKPEDTAVYYCAVWSLGSWRHYYWGQGTQVTVSS | low polyreactivity
QVQLVESGGGLVQAGGSLRLSCAASGFIFYSYDMGWYRQAPGKERELVAAIDSRGVNTYYADSVKGRFTISRDNAKNTVYLQMNILKPEDTAVYYCNVDAITWWDWEDFDYWGQGTQVTVSS | low polyreactivity
QVQLVESGGGLVQAGGSLRLSCAASGRIFYRYAMGWYRQAPGKERELVAAISSGGSTYYADSVKGRFTISRDNAKNTVYLQMNSLKPEDTAVYYCAATWGRGTYYLYYYWGQGTQVTVSS | high polyreactivity
QVQLVESGGGLVQAGGSLRLSCAASGITSHWYVMGWYRQAPGKERELVAAINSSGGRTSYADSVKGRFTISRDNAKNTVYLQMNSLKPEDTAVYYCAAGYTHSYFLGATGKVDYWGQGTQVTVSS | low polyreactivity
QVQLVESGGGIVQAGGSLRLSCAASGRTFKWNAMGWYRQAPGKEREFVATISYSGGSTYYADSVKGRFTISRDIAKNSVYLQMKSLKPEDSAVYYCAAGSPYRFWHRFDYWGQGTQVTVSS | high polyreactivity

Sequence | polyreactivity (PSR sort gate)
QVQLVESGGGLVQAGGSLRLSCAASGITFGPYAMGWYRQAPGKERELVATISSSGGSTYYADSVKGRFTISRDNAKNTVYLQMNSLKPEDTAVYYCNAGYAPYLGAYDYWGQGTQVTVSS | low polyreactivity
QDQLVESGGGLVQAGGSLRISCAASGITLEYNAMGGYRQAPGKERELVATIRSGGSTNYADSVKVRFTISRDNANNTVYLQMNSLKPEDTAVYYCAANHNTEYDWGQGTQVTVSS | high polyreactivity
QVQIVESGGGLVQAGGSLRISCAASGRTLRYNTMGWSRKAPGKERELVAAISIRGGSTYYADSVKGRFTISRDNAKYTVYLQMISLKAEDTAVYYCNVVFQKAARIVEVDYWGQGTQVSVSS | high polyreactivity
QVQLVESGGGLVQAGGSLRLSCAASGLTFGHYDMGWYRQAPGKERELVAAITWSGGSTYYADSVKGRFTISRDNAKNTVYLQMNSLKPEDTAVYYCNADQPILYYSYRGVGYDYWGQGTQVTVSS | high polyreactivity
QVHLVESGGGLVQAGGSHRLSCAASGSIFWYNAMGWYRQAPGKERELVAGITYGGDTNYADSVKGRFTISRDNAKNTVYLQMNSLKPEDTAVYYCAKRWYGGRRYDYWGQGTQVTVSS | low polyreactivity
QGQLVESGGGLVQAGGSLRLSCAASGSTFPPYRMGWYRQAPGKERELVAAITWRGGRTYYADSVKGRFTISRDNAKNTVYLQMNSLKREDTAVYYCAADYPYQYGRYAGSPGAGRYYWGQGTQVTVSS | high polyreactivity
QVHLVESGGGLVQAGRSLRLSCAASGSIFYVYAMGWYRQAPGKETQLVATISTGGSTYYADSVKGRFTISRDNAKNTVYLQMNSLKPEDTAVYYCNAQFTPRYWGGYDSWGQGNQVTVSS | low polyreactivity
QVQLVESGGGLVQAGGSLRLSCAASGIFYVYAMGWYRQAPGKERELVAAISSDGSTYYADSVKGRFTISRDNAKNTVYLQMNSLKPEDTAVYYCAAVWYWTQDYDYWGQGTQVTVSS | low polyreactivity
QVQLVESGGGLVQAGGSLRLICAASGSIFLQYTMGWYRQAPGKERELVAAITESDGSTYYADSVKGRFTISRDNAKNTVYLQMNSLKPEDTGVYYCAAEVVYFKYWDKYDYWGQGTQVTVSS | low polyreactivity
QVQLVESGGGLVQAGGSLRLSCAASGRIFLVYAMGWYRQAPGKERELVATIRSGGRTNYADSVKGRFTISRDNAKNAVYLQMNSLKPEDTAVYYCNAPPYTSSDQDPAGDYEYWGQGTQVTVSS | high polyreactivity
QVQLVESGGGIVQAGGSLRLSCAASGRTFSPYAMGWYRQAPGKERELVAGITWSGGSTYYSDSVKGRFTISRDYAKNPVYFQMNFLKPEDTAVYYCNAVGTYAYYCSFAYDYWGQGTQVNVSS | high polyreactivity
QVKLVESGGGLVQAGGSLRLSCAASGFTFTQYGLGWNRQAPGKEREFVATIRFSGDNTYYADSVKGRFTISRDNAKNTVYLQMNSLKPEDTAVYYCNADNRAFFVYPVSKRYDSWGQGTQVTVSS | low polyreactivity
QVQLVESGGGLVQAGGSLRLSCAASGSIFVTYDLGWYRQAAGKERELVAGISGSGSTNYADSVKGRFTISRDNAKNTVYLQMNSLKPEDTAVYYCNTDGLWSAEYDYWGQGTQVTVSS | low polyreactivity
QVQLVESGGGLVQAGGSLRFSSAASGSIFGTYVMGWYRQAPGKERELVAAISWSGGSTYYADSVKGRFTISRDNAKNTVYLQMNSLKPEDTAVYYCAADSIRFEYEYWGQGTQVTVSS | high polyreactivity
QVQLVESGGGLDQAGGSLRLICAASGRIFVYYTMVWYRQAPGKERELVAAITGSGGSTYYADSVKGRFTISRDNAKNTVYLQMNSLKPEDTAVYYCAVYDSYRSRTHRYPATFAYGSWGQGNQVTVSS | high polyreactivity
QVQLVESGGGLVQAGGSLRLSCAASGRIFDANAMGWYRQAPGKERELVAAITYSGGRTYYADSVKGRFTISRDNAKNTVYLQMNSLKPVDTAVYYCAKRYAYIYDSWGQGTQVTVSS | low polyreactivity
QVQLVESGGGLVQAGGSLRLSCAASGSTFRQYAMGWYRQAPGKERELVAAIRGRDGSTYYADSVKGRFTISRDNAKNTVYLQMNSLKPEDTAVYYCNVVARGVSPGYDYWGQGTQVTVSS | high polyreactivity
QVQLVESGGGLVQAGGSLRLSCAASGSIFNYYAMGWYRQAPGKESELVAGITTSGGSTYYADSVKGRFTISRDNAKNTVYLQMNSLKPEDTAVYYCAAYDYISSTYFLYDYWGQGTQVTVSS | low polyreactivity
QVQLVESGGGLVQAGGSLRLSCAASGLTFGGNAMGWYRQAPGKERELVAGISSSGNTNYADSVKGRFTISRDNAKNTVYLQMNSLKPEDTAVYYCAADENITYPVYDMYYWGQGTQVTVSS | low polyreactivity
QVQLVESGGGLVQAGGSLRLSCAASGFTFAFYAMGWYRQAPGKERELVAAISRRGGSTTYADSVKGRFTISRDNAKNTVYLQMNSLKPEDTAVYYCAAGWRGGRYRYFAYDYWGQGTQVTVSS | high polyreactivity
